Blank lines part the entries; values can stand above or below the binder they belong to.
Tests used:
Experiment in all cases: ITC
[1] = target: T1, NELF-E 244-380 (Homo sapiens, UniProt P18615)
T1 chain: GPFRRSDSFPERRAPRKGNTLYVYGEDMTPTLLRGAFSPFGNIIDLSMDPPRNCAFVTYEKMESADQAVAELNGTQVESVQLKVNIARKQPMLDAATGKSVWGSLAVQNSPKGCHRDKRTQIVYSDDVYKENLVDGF

[2] = target: T2, ARS2 763-871 (Homo sapiens, UniProt Q9BXP5)
T2 chain: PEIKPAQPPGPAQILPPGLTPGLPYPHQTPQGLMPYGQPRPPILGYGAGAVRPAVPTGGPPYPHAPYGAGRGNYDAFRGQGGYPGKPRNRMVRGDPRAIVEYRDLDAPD

[3] = target: T3, NELF-E 360-380 (Homo sapiens, UniProt P18615, m7GTP)
T3 chain: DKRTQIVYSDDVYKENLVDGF

[4] = target: T4, ARS2 845-871 (Homo sapiens, UniProt Q9BXP5, m7GTP)
T4 chain: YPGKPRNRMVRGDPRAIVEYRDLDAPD

[5] = target: PHAX (Homo sapiens, UniProt Q9H814)
[6] = target: T5, ARS2 827-871 (Homo sapiens, UniProt Q9BXP5, m7GTP)
T5 chain: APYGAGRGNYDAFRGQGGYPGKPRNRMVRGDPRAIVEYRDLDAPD

[7] = target: T6, PHAX 103-308 (Homo sapiens, UniProt Q9H814)
T6 chain: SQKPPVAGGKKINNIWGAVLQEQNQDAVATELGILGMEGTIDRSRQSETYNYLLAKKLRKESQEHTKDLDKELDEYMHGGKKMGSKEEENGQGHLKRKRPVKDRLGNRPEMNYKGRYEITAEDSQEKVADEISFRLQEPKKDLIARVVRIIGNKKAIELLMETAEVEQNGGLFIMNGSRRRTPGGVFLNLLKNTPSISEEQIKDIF

Chain of PHAX (Q9H814 2-394): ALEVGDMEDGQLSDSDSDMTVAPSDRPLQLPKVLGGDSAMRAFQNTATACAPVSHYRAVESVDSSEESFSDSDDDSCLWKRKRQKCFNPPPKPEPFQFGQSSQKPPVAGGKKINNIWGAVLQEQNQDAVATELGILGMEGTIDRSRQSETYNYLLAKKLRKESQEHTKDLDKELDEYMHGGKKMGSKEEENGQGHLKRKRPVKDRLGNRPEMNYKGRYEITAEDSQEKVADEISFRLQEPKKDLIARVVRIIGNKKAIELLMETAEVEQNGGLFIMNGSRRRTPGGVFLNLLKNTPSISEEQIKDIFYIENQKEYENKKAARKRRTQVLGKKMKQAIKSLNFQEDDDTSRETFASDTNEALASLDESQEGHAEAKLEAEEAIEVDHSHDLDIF

Kd [1]: ~50 nM
Kd [2]: 1000 nM
B1: CBC (protein)
chain 1: MSRRRHSDENDGGQPHKRRKTSDANETEDHLESLICKVGEKSACSLESNLEGLAGVLEADLPNYKSKILRLLCTVARLLPEKLTIYTTLVGLLNARNYNFGGEFVEAMIRQLKESLKANNYNEAVYLVRFLSDLVNCHVIAAPSMVAMFENFVSVTQEEDVPQVRRDWYVYAFLSSLPWVGKELYEKKDAEMDRIFANTESYLKRRQKTHVPMLQVWTADKPHPQEEYLDCLWAQIQKLKKDRWQERHILRPYLAFDSILCEALQHNLPPFTPPPHTEDSVYPMPRVIFRMFDYTDDPEGPVMPGSHSVERFVIEENLHCIIKSHWKERKTCAAQLVSYPGKNKIPLNYHIVEVIFAELFQLPAPPHIDVMYTTLLIELCKLQPGSLPQVLAQATEMLYMRLDTMNTTCVDRFINWFSHHLSNFQFRWSWEDWSDCLSQDPESPKPKFVREVLEKCMRLSYHQRILDIVPPTFSALCPANPTCIYKYGDESSNSLPGHSVALCLAVAFKSKATNDEIFSILKDVPNPNQDDDDDEGFSFNPLKIEVFVQTLLHLAAKSFSHSFSALAKFHEVFKTLAESDEGKLHVLRVMFEVWRNHPQMIAVLVDKMIRTQIVDCAAVANWIFSSELSRDFTRLFVWEILHSTIRKMNKHVLKIQKELEEAKEKLARQHKRRSDDDDRSSDRKDGVLEEQIERLQEKVESAQSEQKNLFLVIFQRFIMILTEHLVRCETDGTSVLTPWYKNCIERLQQIFLQHHQIIQQYMVTLENLLFTAELDPHILAVFQQFCALQA
chain 2: SGGLLKALRSDSYVELSQYRDQHFRGDNEEQEKLLKKSCTLYVGNLSFYTTEEQIYELFSKSGDIKKIIMGLDKMKKTACGFCFVEYYSRADAENAMRYINGTRLDDRIIRTDWDAGFKEGRQYGRGRSGGQVRDEYRQDYDAGRGGYGKLAQNQ
modifications: m7GTP

Kd [3]: ~3300 nM
Kd [4]: 1100 nM
Kd [5]: 300 nM
Kd [1]: ~400 nM
Kd [6]: 1000 nM
Kd [7]: 600 nM
B2: CBC (protein)
chain 1: B1 chain 1
chain 2: B1 chain 2
